Measured values: patent publication US20150344570A1 (published 2015)

T1: FcγRIIa H (human, UniProt P12318 34-217)
T1 construct: extracellular domain; also called FcgRIIa H; FcγRIIa type H
T1 sequence (looked up): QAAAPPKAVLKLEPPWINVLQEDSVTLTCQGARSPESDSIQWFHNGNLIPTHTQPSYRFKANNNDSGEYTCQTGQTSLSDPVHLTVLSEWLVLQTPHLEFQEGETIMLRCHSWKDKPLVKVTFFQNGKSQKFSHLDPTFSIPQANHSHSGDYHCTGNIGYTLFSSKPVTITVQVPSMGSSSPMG

T2: FcγRIIb (human, UniProt P31994 43-217)
T2 construct: extracellular domain; also called FcgRIIb; 2b
T2 sequence (looked up): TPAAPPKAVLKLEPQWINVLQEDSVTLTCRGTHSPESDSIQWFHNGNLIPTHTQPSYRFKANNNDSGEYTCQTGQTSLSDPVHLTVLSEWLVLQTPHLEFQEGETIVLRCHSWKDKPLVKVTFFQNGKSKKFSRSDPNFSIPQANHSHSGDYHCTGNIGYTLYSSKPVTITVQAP

T3: FcγRIIb extracellular domain with C-terminal His tag (human, UniProt P31994 43-217)
T3 construct: extracellular domain; also called 2b; FcgRIIb; not shown: His tag at the C terminus
T3 sequence (looked up): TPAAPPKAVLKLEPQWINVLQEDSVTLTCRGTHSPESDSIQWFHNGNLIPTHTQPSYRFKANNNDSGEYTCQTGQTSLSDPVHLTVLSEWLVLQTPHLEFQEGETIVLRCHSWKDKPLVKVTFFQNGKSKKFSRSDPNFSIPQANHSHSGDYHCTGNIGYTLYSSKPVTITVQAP


Columns and labels:
[1] = molecular target: T1, FcγRIIa H; experiment: SPR (Biacore), antibody captured, FcγR analyte; binding relative to GpH7-A5/GpH7-B3/GpL16-k0 = 100
[2] = molecular target: T2, FcγRIIb; experiment: as above
[3] = molecular target: T1, FcγRIIa H; experiment: SPR (Biacore); He/Con_2aH divided by He/Con_2b (FcγRIIa H over FcγRIIb)
[4] = molecular target: T3, FcγRIIb extracellular domain with …; experiment: SPR (Biacore), relative to GpH7-A5/GpH7-B3/GpL16-k0 = 100
[5] = molecular target: T4, FcγRIIIa extracellular domain with C-terminal His tag (human, UniProt P08637 17-208); experiment: as above
T4 construct: extracellular domain; also called 3a; FcgRIIIa; not shown: His tag at the C terminus
T4 sequence (P08637 17-208): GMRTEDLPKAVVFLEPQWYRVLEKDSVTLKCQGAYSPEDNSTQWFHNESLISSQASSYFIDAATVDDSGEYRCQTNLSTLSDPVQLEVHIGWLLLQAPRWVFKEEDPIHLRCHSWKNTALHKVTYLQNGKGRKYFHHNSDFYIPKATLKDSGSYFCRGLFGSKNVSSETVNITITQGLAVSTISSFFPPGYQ

[6] = molecular target: T4, FcγRIIIa extracellular domain with …; experiment: SPR (Biacore); ratio of He/Con_3a (FcγRIIIa) to He/Con_2b (FcγRIIb)

Binder	He/Con_2aH [1]	He/Con_2b [2]	He_2aH/2b (IIaH/IIb) [3] [ratio]	He/Con_2b [4]	He/Con_3a [5]	He_3a/2b (IIIa/IIb) [6]
GpH7-A5/GpH7-B3 variant G237_18N/GpL16-k0 (antibody, human IgG1, kappa, Heterodimerized antibody, alteration in one H chain only; also called He Ab G237N) heavy 1: not shown heavy 2: not shown light: DIVMTQSPLSLPVTPGEPASISCQASESLVHSNRNTYLHWYLQKPGQSPQLLIYKVSNRFSGVPDRFSGSGSGTDFTLKISRVEAEDVGVYYCSQNTHVPPTFGQGTKVEIERTVAAPSVFIFPPSDEQLKSGTASVVCLLNNFYPREAKVQWKVDNALQSGNSQESVTEQDSKDSTYSLSSTLTLSKADYEKHKVYACEVTHQGLSSPVTKSFNRGEC	15.2 % of control	180 % of control	0.08	–	–	–
GpH7-A5/GpH7-B3 variant G237_02A/GpL16-k0 (antibody, human IgG1, kappa, IgG1, anti-glypican-3; also called He Ab) heavy 1: not shown heavy 2: not shown light: DIVMTQSPLSLPVTPGEPASISCQASESLVHSNRNTYLHWYLQKPGQSPQLLIYKVSNRFSGVPDRFSGSGSGTDFTLKISRVEAEDVGVYYCSQNTHVPPTFGQGTKVEIERTVAAPSVFIFPPSDEQLKSGTASVVCLLNNFYPREAKVQWKVDNALQSGNSQESVTEQDSKDSTYSLSSTLTLSKADYEKHKVYACEVTHQGLSSPVTKSFNRGEC	–	–	–	124 % (control = 100)	48.8 % (control = 100)	0.39
GpH7-A5/GpH7-B3 variant P238_04F/GpL16-k0 (antibody, human IgG1, kappa, Heterodimerized antibody, alteration in one H chain only; also called He Ab P238F) heavy 1: not shown heavy 2: not shown light: DIVMTQSPLSLPVTPGEPASISCQASESLVHSNRNTYLHWYLQKPGQSPQLLIYKVSNRFSGVPDRFSGSGSGTDFTLKISRVEAEDVGVYYCSQNTHVPPTFGQGTKVEIERTVAAPSVFIFPPSDEQLKSGTASVVCLLNNFYPREAKVQWKVDNALQSGNSQESVTEQDSKDSTYSLSSTLTLSKADYEKHKVYACEVTHQGLSSPVTKSFNRGEC	65.4 % of control	312 % of control	0.21	–	–	–
GpH7-A5/GpH7-B3 variant L234_09D/GpL16-k0 (antibody, human IgG1, kappa, Heterodimerized antibody, alteration in one H chain only; also called He Ab L234D) heavy 1: not shown heavy 2: not shown light: DIVMTQSPLSLPVTPGEPASISCQASESLVHSNRNTYLHWYLQKPGQSPQLLIYKVSNRFSGVPDRFSGSGSGTDFTLKISRVEAEDVGVYYCSQNTHVPPTFGQGTKVEIERTVAAPSVFIFPPSDEQLKSGTASVVCLLNNFYPREAKVQWKVDNALQSGNSQESVTEQDSKDSTYSLSSTLTLSKADYEKHKVYACEVTHQGLSSPVTKSFNRGEC	89.9 % of control	150 % of control	0.6	–	–	–
GpH7-A5/GpH7-B3 variant P238_01G/GpL16-k0 (antibody, human IgG1, kappa, Heterodimerized antibody, alteration in one H chain only; also called He Ab P238G) heavy 1: not shown heavy 2: not shown light: DIVMTQSPLSLPVTPGEPASISCQASESLVHSNRNTYLHWYLQKPGQSPQLLIYKVSNRFSGVPDRFSGSGSGTDFTLKISRVEAEDVGVYYCSQNTHVPPTFGQGTKVEIERTVAAPSVFIFPPSDEQLKSGTASVVCLLNNFYPREAKVQWKVDNALQSGNSQESVTEQDSKDSTYSLSSTLTLSKADYEKHKVYACEVTHQGLSSPVTKSFNRGEC	37.3 % of control	56 % of control	0.66	–	–	–
GpH7-A5/GpH7-B3 variant G236_09D/GpL16-k0 (antibody, human IgG1, kappa, IgG1, anti-glypican-3; also called He Ab) heavy 1: not shown heavy 2: not shown light: DIVMTQSPLSLPVTPGEPASISCQASESLVHSNRNTYLHWYLQKPGQSPQLLIYKVSNRFSGVPDRFSGSGSGTDFTLKISRVEAEDVGVYYCSQNTHVPPTFGQGTKVEIERTVAAPSVFIFPPSDEQLKSGTASVVCLLNNFYPREAKVQWKVDNALQSGNSQESVTEQDSKDSTYSLSSTLTLSKADYEKHKVYACEVTHQGLSSPVTKSFNRGEC	–	–	–	167 % (control = 100)	71.2 % (control = 100)	0.43
GpH7-A5/GpH7-B3 variant G236_13S/GpL16-k0 (antibody, human IgG1, kappa, IgG1, anti-glypican-3; also called He Ab) heavy 1: not shown heavy 2: not shown light: DIVMTQSPLSLPVTPGEPASISCQASESLVHSNRNTYLHWYLQKPGQSPQLLIYKVSNRFSGVPDRFSGSGSGTDFTLKISRVEAEDVGVYYCSQNTHVPPTFGQGTKVEIERTVAAPSVFIFPPSDEQLKSGTASVVCLLNNFYPREAKVQWKVDNALQSGNSQESVTEQDSKDSTYSLSSTLTLSKADYEKHKVYACEVTHQGLSSPVTKSFNRGEC	–	–	–	96.7 % (control = 100)	64.8 % (control = 100)	0.67
GpH7-A5/GpH7-B3 variant L234_10E/GpL16-k0 (antibody, human IgG1, kappa, Heterodimerized antibody, alteration in one H chain only; also called He Ab L234E) heavy 1: not shown heavy 2: not shown light: DIVMTQSPLSLPVTPGEPASISCQASESLVHSNRNTYLHWYLQKPGQSPQLLIYKVSNRFSGVPDRFSGSGSGTDFTLKISRVEAEDVGVYYCSQNTHVPPTFGQGTKVEIERTVAAPSVFIFPPSDEQLKSGTASVVCLLNNFYPREAKVQWKVDNALQSGNSQESVTEQDSKDSTYSLSSTLTLSKADYEKHKVYACEVTHQGLSSPVTKSFNRGEC	88.3 % of control	118 % of control	0.75	–	–	–
